{
  "source": "patent US20220017591A1",
  "about": "(AstraZeneca / MedImmune, published 2022)",
  "assay_in_all_cases": "cell-based or functional assay",
  "key": {"[1]": {"target": "T1, mouse RXFP1 (mouse, UniProt Q6R6I7 1-758)", "T1 sequence (looked up)": "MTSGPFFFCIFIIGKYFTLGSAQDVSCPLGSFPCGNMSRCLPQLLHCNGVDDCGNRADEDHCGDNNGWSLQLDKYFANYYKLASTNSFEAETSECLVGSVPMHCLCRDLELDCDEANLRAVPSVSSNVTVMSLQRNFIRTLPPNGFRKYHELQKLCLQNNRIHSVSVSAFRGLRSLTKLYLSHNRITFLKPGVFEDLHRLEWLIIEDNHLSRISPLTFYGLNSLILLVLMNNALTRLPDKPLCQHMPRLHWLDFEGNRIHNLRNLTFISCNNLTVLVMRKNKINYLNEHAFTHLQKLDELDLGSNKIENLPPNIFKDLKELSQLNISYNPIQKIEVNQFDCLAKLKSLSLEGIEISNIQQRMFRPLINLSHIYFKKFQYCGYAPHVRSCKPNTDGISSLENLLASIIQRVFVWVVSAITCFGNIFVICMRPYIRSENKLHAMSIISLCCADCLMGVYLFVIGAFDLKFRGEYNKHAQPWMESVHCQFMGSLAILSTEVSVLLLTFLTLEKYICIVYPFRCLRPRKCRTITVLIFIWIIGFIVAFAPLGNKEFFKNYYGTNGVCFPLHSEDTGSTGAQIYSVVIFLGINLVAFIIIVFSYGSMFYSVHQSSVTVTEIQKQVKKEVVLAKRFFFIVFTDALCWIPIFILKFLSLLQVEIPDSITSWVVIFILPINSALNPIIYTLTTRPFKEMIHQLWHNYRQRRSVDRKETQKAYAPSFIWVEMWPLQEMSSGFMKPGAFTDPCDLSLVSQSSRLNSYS"}, "[2]": {"target": "T2, human RXFP1 (human, UniProt Q9HBX9 1-757)", "T2 sequence (looked up)": "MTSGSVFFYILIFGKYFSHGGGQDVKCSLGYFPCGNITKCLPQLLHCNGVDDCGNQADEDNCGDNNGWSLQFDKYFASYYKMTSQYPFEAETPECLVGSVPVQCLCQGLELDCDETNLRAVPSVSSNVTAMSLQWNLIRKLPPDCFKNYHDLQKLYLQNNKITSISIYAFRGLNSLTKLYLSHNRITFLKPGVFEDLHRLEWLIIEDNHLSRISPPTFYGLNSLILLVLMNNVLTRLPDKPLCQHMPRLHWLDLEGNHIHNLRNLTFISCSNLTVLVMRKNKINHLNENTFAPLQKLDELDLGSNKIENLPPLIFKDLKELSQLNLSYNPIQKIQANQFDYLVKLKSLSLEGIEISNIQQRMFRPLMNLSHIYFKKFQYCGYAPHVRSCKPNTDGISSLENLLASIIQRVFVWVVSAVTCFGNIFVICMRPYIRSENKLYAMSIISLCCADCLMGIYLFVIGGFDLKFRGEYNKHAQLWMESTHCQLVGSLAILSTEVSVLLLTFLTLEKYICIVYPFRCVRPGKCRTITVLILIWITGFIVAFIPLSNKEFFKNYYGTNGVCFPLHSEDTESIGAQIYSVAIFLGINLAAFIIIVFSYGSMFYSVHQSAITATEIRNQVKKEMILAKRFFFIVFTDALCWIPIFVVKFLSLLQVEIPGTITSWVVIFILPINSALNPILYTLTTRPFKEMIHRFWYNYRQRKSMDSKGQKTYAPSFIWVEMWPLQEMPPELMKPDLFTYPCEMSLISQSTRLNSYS"}, "[3]": {"target": "human RXFP2 (human, UniProt Q8WXD0 1-754)", "sequence (Q8WXD0 whole entry)": "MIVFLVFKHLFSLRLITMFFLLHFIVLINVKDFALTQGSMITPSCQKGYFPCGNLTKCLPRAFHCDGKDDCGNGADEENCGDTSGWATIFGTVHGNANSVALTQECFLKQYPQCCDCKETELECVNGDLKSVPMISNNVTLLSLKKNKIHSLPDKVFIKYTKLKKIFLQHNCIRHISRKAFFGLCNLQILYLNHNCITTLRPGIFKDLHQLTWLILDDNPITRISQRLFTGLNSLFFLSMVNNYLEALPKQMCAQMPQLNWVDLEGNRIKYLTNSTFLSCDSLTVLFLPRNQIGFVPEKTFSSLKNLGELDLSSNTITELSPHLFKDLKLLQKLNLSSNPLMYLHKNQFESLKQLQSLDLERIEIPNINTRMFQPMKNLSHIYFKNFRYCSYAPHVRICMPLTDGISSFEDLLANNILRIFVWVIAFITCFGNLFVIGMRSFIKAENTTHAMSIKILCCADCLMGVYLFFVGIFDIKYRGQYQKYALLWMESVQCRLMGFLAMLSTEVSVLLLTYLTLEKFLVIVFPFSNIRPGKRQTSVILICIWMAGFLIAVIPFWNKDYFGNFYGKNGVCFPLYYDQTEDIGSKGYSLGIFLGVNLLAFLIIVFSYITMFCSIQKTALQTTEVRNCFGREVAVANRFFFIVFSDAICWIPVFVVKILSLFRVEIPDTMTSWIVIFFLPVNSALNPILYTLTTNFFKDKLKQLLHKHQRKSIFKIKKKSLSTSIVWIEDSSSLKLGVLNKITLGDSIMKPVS"}},
  "data": [
    {"binder": "RELAX0039 (Fc fusion) chain 1: DKTHTACPPCPAPEFEGGPSVFLFPPKPKDTLMISRTPEVTCVVVDVSHEDPEVKFNWYVDGVEVHNAKTKPREEQYNSTYRVVSVLTVLHQDWLNGKEYKCKVSNKALPASIEKTISKAKGQPREPQVYTLPPCREEMTKNQVSLWCLVKGFYPSDIAVEWESNGQPENNYKTTPPVLDSDGSFFLYSKLTVDKSRWQQGNVFSCSVMHEALHNHYTQKSLSLSPGGGGGSGGGGSGGGGSGGGGGSQLYSALANMCCHVGCTKRSLARFC chain 2: DKTHTCPPCPAPEFEGGPSVFLFPPKPKDTLMISRTPEVTCVVVDVSHEDPEVKFNWYVDGVEVHNAKTKPREEQYNSTYRVVSVLTVLHQDWLNGKEYKCKVSNKALPASIEKTISKAKGQPREPQVCTLPPSREEMTKNQVSLSCAVKGFYPSDIAVEWESNGQPENNYKTTPPVLDSDGSFFLVSKLTVDKSRWQQGNVFSCSVMHEALHNHYTQKSLSLSPGGGGGSGGGGSGGGGSGGGGGSSWMEEVIKLCGRELVRAQIAICGMSTWS", "values": [
      {"measurement": "EC50 mRXFP1 (M), cAMP assay", "setting": "[1]", "value": "4.25e-11", "unit": "M"},
      {"measurement": "EC50 hRXFP1 (M), cAMP assay", "setting": "[2]", "value": "6.54e-11", "unit": "M"},
      {"measurement": "EC50 hRXFP2 (M), cAMP assay", "setting": "[3]", "value": "1.08e-07", "unit": "M"}
    ]},
    {"binder": "RELAX0041 (Fc fusion) chain 1: DKTHTACPPCPAPEFEGGPSVFLFPPKPKDTLMISRTPEVTCVVVDVSHEDPEVKFNWYVDGVEVHNAKTKPREEQYNSTYRVVSVLTVLHQDWLNGKEYKCKVSNKALPASIEKTISKAKGQPREPQVYTLPPCREEMTKNQVSLWCLVKGFYPSDIAVEWESNGQPENNYKTTPPVLDSDGSFFLYSKLTVDKSRWQQGNVFSCSVMHEALHNHYTQKSLSLSPGGGGGSGGGGSGGGGSGGGGGSQLYSALANHCCHVGCTKRSLARFC chain 2: DKTHTCPPCPAPEFEGGPSVFLFPPKPKDTLMISRTPEVTCVVVDVSHEDPEVKFNWYVDGVEVHNAKTKPREEQYNSTYRVVSVLTVLHQDWLNGKEYKCKVSNKALPASIEKTISKAKGQPREPQVCTLPPSREEMTKNQVSLSCAVKGFYPSDIAVEWESNGQPENNYKTTPPVLDSDGSFFLVSKLTVDKSRWQQGNVFSCSVMHEALHNHYTQKSLSLSPGGGGGSGGGGSGGGGSGGGGGSSWMEEVIKLCGRELVRAQIAICGMSTWS", "values": [
      {"measurement": "EC50 mRXFP1 (M), cAMP assay", "setting": "[1]", "value": "3.17e-11", "unit": "M"},
      {"measurement": "EC50 hRXFP1 (M), cAMP assay", "setting": "[2]", "value": "6.22e-11", "unit": "M"},
      {"measurement": "EC50 hRXFP2 (M), cAMP assay", "setting": "[3]", "value": "1.18e-07", "unit": "M"}
    ]},
    {"binder": "RELAX0043 (Fc fusion) chain 1: DKTHTACPPCPAPEFEGGPSVFLFPPKPKDTLMISRTPEVTCVVVDVSHEDPEVKFNWYVDGVEVHNAKTKPREEQYNSTYRVVSVLTVLHQDWLNGKEYKCKVSNKALPASIEKTISKAKGQPREPQVYTLPPCREEMTKNQVSLWCLVKGFYPSDIAVEWESNGQPENNYKTTPPVLDSDGSFFLYSKLTVDKSRWQQGNVFSCSVMHEALHNHYTQKSLSLSPGGGGGSGGGGSGGGGSGGGGGSQLYSALANECCHVGCTKRSLARFC chain 2: DKTHTCPPCPAPEFEGGPSVFLFPPKPKDTLMISRTPEVTCVVVDVSHEDPEVKFNWYVDGVEVHNAKTKPREEQYNSTYRVVSVLTVLHQDWLNGKEYKCKVSNKALPASIEKTISKAKGQPREPQVCTLPPSREEMTKNQVSLSCAVKGFYPSDIAVEWESNGQPENNYKTTPPVLDSDGSFFLVSKLTVDKSRWQQGNVFSCSVMHEALHNHYTQKSLSLSPGGGGGSGGGGSGGGGSGGGGGSSWMEEVIKLCGRELVRAQIAICGMSTWS", "values": [
      {"measurement": "EC50 mRXFP1 (M), cAMP assay", "setting": "[1]", "value": "5.58e-11", "unit": "M"},
      {"measurement": "EC50 hRXFP1 (M), cAMP assay", "setting": "[2]", "value": "7.98e-11", "unit": "M"},
      {"measurement": "EC50 hRXFP2 (M), cAMP assay", "setting": "[3]", "value": "> 1.58e-07", "unit": "M"}
    ]},
    {"binder": "RELAX0040 (Fc fusion) chain 1: DKTHTACPPCPAPEFEGGPSVFLFPPKPKDTLMISRTPEVTCVVVDVSHEDPEVKFNWYVDGVEVHNAKTKPREEQYNSTYRVVSVLTVLHQDWLNGKEYKCKVSNKALPASIEKTISKAKGQPREPQVYTLPPCREEMTKNQVSLWCLVKGFYPSDIAVEWESNGQPENNYKTTPPVLDSDGSFFLYSKLTVDKSRWQQGNVFSCSVMHEALHNHYTQKSLSLSPGGGGGSGGGGSGGGGSGGGGGSQLYSALANLCCHVGCTKRSLARFC chain 2: DKTHTCPPCPAPEFEGGPSVFLFPPKPKDTLMISRTPEVTCVVVDVSHEDPEVKFNWYVDGVEVHNAKTKPREEQYNSTYRVVSVLTVLHQDWLNGKEYKCKVSNKALPASIEKTISKAKGQPREPQVCTLPPSREEMTKNQVSLSCAVKGFYPSDIAVEWESNGQPENNYKTTPPVLDSDGSFFLVSKLTVDKSRWQQGNVFSCSVMHEALHNHYTQKSLSLSPGGGGGSGGGGSGGGGSGGGGGSSWMEEVIKLCGRELVRAQIAICGMSTWS", "values": [
      {"measurement": "EC50 mRXFP1 (M), cAMP assay", "setting": "[1]", "value": "2.92e-11", "unit": "M"},
      {"measurement": "EC50 hRXFP1 (M), cAMP assay", "setting": "[2]", "value": "5.92e-11", "unit": "M"},
      {"measurement": "EC50 hRXFP2 (M), cAMP assay", "setting": "[3]", "value": "> 1.27e-07", "unit": "M"}
    ]}
  ]
}
